No end group written: not given here.
Columns and labels:
[1] = target: T1, wild type MrgprX1 (Homo sapiens, UniProt Q96LB2); assay: SRE-luciferase reporter gene assay in transfected HEK293 cells, wild type receptor; format: cell-based
T1 construct: expressed in transfected cells; host or cells: HEK293
Method: A luciferase reporter-based assay was utilized as an index of receptor-mediated signaling (as in Doyle et al., 2013). Human kidney cells (HEK293), grown in Dulbecco's modified Eagle's medium (DMEM) containing 10% FBS, 100 U/ml penicillin, and 100 μg/ml streptomycin were seeded in 96-well plates and grown to 80% confluence. Using polyethylenimine (PEI, 2.0 μg/mL in serum-free DMEM), cells were transiently transfected with cDNAs encoding (a) wild type or variant MrgprX1 (3 ng/well); (b) an SRE-luciferase PEST construct (SRE5×-Luc-PEST), which includes five SRE repeats, a luciferase reporter gene, and the protein degradation sequence hPEST (Promega, catalog #E1340) (25 ng/well); and (c) a CMV-β-galactosidase construct as a control for variability in transfection efficiency (10 ng/well). In experiments that included transfection of an MTL-encoding construct, the corresponding cDNA was added to the transfection mix, at 4 ng/well or as indicated.
(§1) Twenty-four hours following transfection, cells were stimulated with soluble ligand for 4 hours (if applicable). After addition of SteadyLite reagent (PerkinElmer, Chicago, Ill.), luciferase activity of the lysate was measured using a TopCount NTX plate reader. Subsequently, 2-nitrophenyl β-D-galactopyranoside (ONPG) was added as a colorimetric substrate to enable quantification of β-galactosidase levels. After incubation with ONPG for 30 minutes, absorbance at 420 nm was measured using a SpectraMax microplate reader (Molecular Devices). Luciferase activity was normalized using the β-galactosidase activity data. Three independent experiments were performed, each with three technical replicates. Data were graphed and statistically analyzed using Graphpad Prism software.
GraphPad Prism software version 6.0 (GraphPad Software Inc., La Jolla, Calif.) was used for sigmoidal curve fitting of ligand concentration—response curves, linear regression, and statistical analysis. EC50 and pEC50 values were calculated for each independent experiment as an index of ligand potency. Reported values represent the mean of three independent experiments. Statistical comparisons were made by one-way analysis of variance with Dunnett's multiple comparisons test.
As additional tools for structure-function studies, MTLs incorporating one of two endogenous peptide ligands for MrgprX1, BAMS-22 and γ2-MSH, were generated. The activities of MTL constructs in both orientations (type I, with an extracellular N terminus of the ligand; type II, with an extracellular C terminus) were assessed using a luciferase-based reporter assay as described herein. […] Luciferase activity was quantified and normalized relative to β-galactosidase expression. […]

[2] = target: T2, MrgprX1 R55L variant (Homo sapiens, UniProt Q96LB2, R55L); assay: SRE-luciferase reporter gene assay in transfected HEK293 cells, R55L variant; format: cell-based; details: significant only with tethered γ2-MSH
T2 construct: expressed in transfected cells; host or cells: HEK293
T2 sequence (Q96LB2 whole entry R55L): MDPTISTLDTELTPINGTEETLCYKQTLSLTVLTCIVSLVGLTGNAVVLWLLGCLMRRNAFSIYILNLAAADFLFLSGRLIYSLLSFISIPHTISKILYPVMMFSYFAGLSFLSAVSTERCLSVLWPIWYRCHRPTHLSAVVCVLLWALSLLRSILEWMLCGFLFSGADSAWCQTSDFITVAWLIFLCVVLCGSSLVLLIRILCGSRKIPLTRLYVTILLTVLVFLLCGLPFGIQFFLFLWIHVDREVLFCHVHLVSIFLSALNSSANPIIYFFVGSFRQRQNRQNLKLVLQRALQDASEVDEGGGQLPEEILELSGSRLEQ
Method: (§2) A luciferase reporter-based assay was utilized as an index of receptor-mediated signaling (as in Doyle et al., 2013). Human kidney cells (HEK293), grown in Dulbecco's modified Eagle's medium (DMEM) containing 10% FBS, 100 U/ml penicillin, and 100 μg/ml streptomycin were seeded in 96-well plates and grown to 80% confluence. […]
as §1, with “Luciferase activity was normalized using the β-galactosidase activity data. Three independent experiments were performed, each with three technical replicates.” left out
(§3) GraphPad Prism software version 6.0 (GraphPad Software Inc., La Jolla, Calif.) was used for sigmoidal curve fitting of ligand concentration—response curves, linear regression, and statistical analysis. EC50 and pEC50 values were calculated for each independent experiment as an index of ligand potency. […]
(§4) The activity of tethered and lipidated BAMS-22 at each of the seven MrgprX1 variants was assessed (FIGS. 4A-4B). […]

[3] = target: T3, MrgprX1 R131S variant (Homo sapiens, UniProt Q96LB2, R131S); assay: SRE-luciferase reporter gene assay in transfected HEK293 cells, R131S variant; format: cell-based
T3 construct: expressed in transfected cells; host or cells: HEK293
T3 sequence (Q96LB2 whole entry R131S): as the sequence (Q96LB2 whole entry R55L) above, with L55R, R131S counted along it
Method: as §2
as §1, with “Luciferase activity was normalized using the β-galactosidase activity data. Three independent experiments were performed, each with three technical replicates.” left out
as §3
Signaling of MrgprX1 following stimulation with the endogenous peptide ligand BAM8-22 was measured using a luciferase reporter assay as described herein. […]

[4] = target: T4, MrgprX1 H133R variant (Homo sapiens, UniProt Q96LB2, H133R); assay: SRE-luciferase reporter gene assay in transfected HEK293 cells, H133R variant; format: cell-based
T4 construct: expressed in transfected cells; host or cells: HEK293
T4 sequence (Q96LB2 whole entry H133R): as the sequence (Q96LB2 whole entry R55L) above, with L55R, H133R counted along it
Method: as §2
as §1, with “Luciferase activity was normalized using the β-galactosidase activity data. Three independent experiments were performed, each with three technical replicates.” left out
as §3, §4

[5] = target: T5, MrgprX1 F273L variant (Homo sapiens, UniProt Q96LB2, F273L); assay: SRE-luciferase reporter gene assay in transfected HEK293 cells, F273L variant; format: cell-based; details: significant only with tethered γ2-MSH
T5 construct: expressed in transfected cells; host or cells: HEK293
T5 sequence (Q96LB2 whole entry F273L): as the sequence (Q96LB2 whole entry R55L) above, with L55R, F273L counted along it
Method: as §2
as §1, with “Luciferase activity was normalized using the β-galactosidase activity data. Three independent experiments were performed, each with three technical replicates.” left out
as §3, §4

[6] = system: spinal nerve ligation neuropathic pain; details: intrathecal; rats; cited from earlier work

T1 sequence (Q96LB2 whole entry): as the sequence (Q96LB2 whole entry R55L) above, with L55R counted along it

signaling at saturating concentration, of maximum lipidated BAM8-22 signaling ([1]; WT receptor, relative to lipidated BAM8-22 at 10^−7 M, mean±SEM, data not shown) [%]	MTL activation of the receptor ([1]; co-expressed with MrgprX1 in HEK293, increasing amounts of MTL cDNA, FIG. 3A, 3B)	ligand-mediated signaling compared to wild type receptor [2]	ligand-mediated signaling compared to wild type receptor [4]	ligand-mediated signaling compared to wild type receptor [5]	tethered ligand induced receptor activity of substituted BAM8-22 MTL ([1]; MTL construct in HEK293 cells)	receptor stimulation at the highest tested concentration ([1]; 10 μM, accurate EC50 values could not be calculated)	Substance	ligand-mediated signaling compared to wild type receptor [3]	time after administration at which the effect returns to baseline [6] [min]
38.4±5.4	Active	moderate decrease in signaling	not observed	moderate decrease in signaling			tethered BAM8-22: cDNA-encoded type I membrane tethered ligand: BAM8-22 fused to a transmembrane domain via a flexible linker, free extracellular N terminus (VGRPEWWMDYQKRYG; also: fused at C-terminus via flexible linker to a transmembrane domain (type I tethered ligand))	negligible signaling levels	
					full activity		M15A-Y17W: double substituted BAM8-22 MTL analog, M15A and Y17W (VGRPEWWADWQKRYG; left off: small tags and cut ends; large carriers)		
						does not fully stimulate the receptors	bovine adrenal medulla peptide 8-22 (VGRPEWWMDYQKRYG) [BAM8-22, reference compound]	lower levels of BAMS-22 mediated activity	90
